Data: US7514069B2, “Tumor-targeted optical contrast agents” (Mallinckrodt Inc., priority 2000, dated 2009)

Assays:
[1] = test system: pancreatic acinar carcinoma expressing the SST-2 receptor (CA20948); experiment: In vivo fluorescence imaging of rat pancreatic acinar carcinoma (CA20948); parameters: species or system Lewis rat
Description: (§1) A non-invasive in vivo fluorescence imaging apparatus was employed to assess the efficacy of contrast agents developed for tumor detection in animal models. A LaserMax Inc. laser diode of nominal wavelength 780 nm and nominal power of 40 mW was used. The detector was a Princeton Instruments model RTE/CCD-1317-K/2 CCD camera with a Rodenstock 10 mm F2 lens (stock #542.032.002.20) attached. An 830 nm interference […] (CVI Laser Corp., part # F10-830-4-2) was mounted in front of the CCD input lens such that only emitted fluorescent light from the contrast agent was imaged. Typically, an image of the animal was taken pre-injection of contrast agent. This image was subsequently subtracted (pixel by pixel) from the post injection images. However, the background subtraction was […] done once the animal had been removed from the sample area and returned at a later time for images taken several hours post injection.
The imaging apparatus and the procedure used are described in Example 12. Rat pancreatic acinar carcinoma expressing the SST-2 receptor (CA20948) was induced by solid implant technique in the left flank area, and palpable masses were detected nine days post implant. The images obtained at 2 and 30 minutes post injection are shown in FIG. 7E-F. FIGS. 7E-F are images of a rat with an induced pancreatic acinar carcinoma (CA20948) expressing the SST-2 receptor imaged at two minutes (FIG. 7E) and 30 minutes (FIG. 7F) post injection.
The imaging apparatus and the procedure used are described in Example 12 except that each animal received 500 μl of a 1.0 mg/mL solution of Cytate 1 solution of 25% dimethylsulfoxide in water.
Rat pancreatic acinar carcinoma expressing the SST-2 receptor (CA20948) were induced by solid implant technique in the left flank area, and palpable masses were detected 24 days post implant. Images were obtained at various times post injection.
Cytate 1 was evaluated in the CA20948 Lewis rat model. […] At 27 hours post injection, the animal was again imaged (FIG. 9B).

[2] = test system: pancreatic acinar carcinoma (CA20948); experiment: Imaging of individual organs removed from CA20948 tumor-bearing rat; type: in vivo; conditions: organs removed about 24 hours post administration
Method: Individual organs were removed at about 24 hours post Cytate 1 administration and imaged.

[3] = Monitoring of the blood clearance profile of peptide-dye conjugates; type: in vivo, Sprague-Dawley or Fischer 344 rats; conditions: bolus injection in lateral tail vein; monitored at 830 nm after excitation at 780 nm
Description: A laser of appropriate wavelength for excitation of the dye chromophore was directed into one end of a fiber optic bundle and the other end was positioned a few millimeters from the ear of a rat. A second fiber optic bundle was also positioned near the same ear to detect the emitted fluorescent light and the other end was directed into the optics and electronics for data collection. An interference filter (IF) in the collection optics train was used to select emitted fluorescent light of the appropriate wavelength for the dye chromophore.
Sprague-Dawley or Fischer 344 rats were used in these studies. The animals were anesthetized with urethane administered via intraperitoneal injection at a dose of 1.35 g/kg body weight. After the animals had achieved the desired plane of anesthesia, a 21 gauge butterfly with 12″ tubing was placed in the lateral tail vein of each animal and flushed with heparinized saline. The animals were placed onto a heating pad and kept warm throughout the entire study. […]
Incident laser light delivered from the fiber optic was centered on the affixed ear. Data acquisition was then initiated, and a background reading of fluorescence was obtained prior to administration of the test agent. […] The data were analyzed using a standard sigma plot software program for a one compartment model.

[4] = test system: DSL 6A tumors; experiment: In vivo fluorescence imaging of pancreatic ductal adenocarcinoma (DSL 6A); parameters: species or system male Lewis rats
Description: as §1
DSL 6A tumors were induced in male Lewis rats in the left flank area by the introduction of material from a solid (donor) implant and the tumors were palpable in approximately 14 days. The animals were anesthetized with xylazine; ketamine; acepromazine 1.5:1.5:0.5 at 0.8 mL/kg via intramuscular injection. The area of the tumor (left flank) was shaved to expose tumor and surrounding surface area. […]

[5] = test system: Prostrate tumors (Dunning R3327-H); experiment: In vivo fluorescence imaging of prostatic carcinoma (R3327-H); parameters: species or system young male Copenhagen rats
Description: as §1
The imaging apparatus and the procedure used are described as in Example 12. Prostrate tumors (Dunning R3327-H) were induced in young male Copenhagen rats in the left flank area from a solid implant. These tumors grow very slowly and palpable masses were present 4-5 months post implant. FIGS. 7C-D are images of a rat with an induced prostatic carcinoma tumor (R3327-H) imaged at two minutes (FIG. 7C) and 30 minutes (FIG. 7D) post injection.

[6] = 500 μl of 1.0 mg/mL solution in 25% dimethylsulfoxide in water, CA20948 tumor

Row | Structure (SMILES) | time at which uptake into the tumor was maximal [1, 6] | time at which uptake into the tumor was seen [1, 6] | uptake at 45 minutes in rats with the CA20948 tumor cell line ([1]; 45 minutes post injection) | localization of dye in the tumor ([1]; 45 minutes post injection, CA20948 Lewis rat model) | tumor visualization ([1]; 27 hours post injection, CA20948 Lewis rat model) | persistence of dye fluorescence in the tumor ([1]; CA20948 tumor, post-injection) | organ uptake: adrenals [2] | organ uptake: heart [2] | organ uptake: liver [2] | organ uptake: muscle [2] | organ uptake: pancreas [2] | organ uptake: spleen [2] | organ uptake: tumor tissue [2] | fluorescence signal in blood (ear) after bolus injection [3] | dye intensity in the tumor ([4]; 30 minutes post-ICG injection, bolus injection of 0.5 ml aqueous solution of ICG, DSL 6A tumor) | perfusion of the agent into the tumor ([4]; DSL 6/A (pancreatic) tumor line, CCD camera) | dye intensity in the tumor ([5]; 30 minutes post-ICG injection, R3327-H tumor) | perfusion of the agent into the tumor ([5]; Dunning R3327H (prostate) tumor line, CCD camera) | dye intensity in the tumor ([1]; 30 minutes post-ICG injection, CA20948 tumor) | perfusion of the agent into the tumor ([1]; CA20948 (pancreatic) tumor line, CCD camera)
1 | C[C@@H](O)[C@H](NC(=O)[C@@H]1CSSC[C@H](NC(=O)[C@@H](Cc2ccccc2)NC(=O)CCN2C(=CC=CC=CC=CC3=[N+](CCC(=O)O)c4ccc5ccccc5c4C3(C)C)C(C)(C)c3c2ccc2ccccc32)C(=O)N[C@@H](Cc2ccc(O)cc2)C(=O)N[C@H](Cc2c[nH]c3ccccc23)C(=O)N[C@@H](CCCCN)C(=O)N[C@@H]([C@@H](C)O)C(=O)N1)C(=O)O [Cytate 1, monoOctreotate-Bisethylcarboxymethylindocyanine dye] | about five | two | still quite intense | localization of this dye was observed in the tumor | Tumor visualization was easily observed | remained intense in the tumor for several hours | high uptake | significantly lower uptake | significantly lower uptake | significantly lower uptake | high uptake | significantly lower uptake | high uptake | rapidly increased to a peak value. The signal then decayed as a function of time | – | – | – | – | – | –
2 | C[C@@H](O)[C@H](NC(=O)[C@@H]1CSSC[C@H](NC(=O)[C@@H](Cc2ccccc2)NC(=O)CCN2C(=CC=CC=CC=CC3=[N+](CCC(=O)N[C@H](Cc4ccccc4)C(=O)N[C@H]4CSSC[C@@H](C(=O)N[C@H](C(=O)O)[C@@H](C)O)NC(=O)[C@H]([C@@H](C)O)NC(=O)[C@H](CCCCN)NC(=O)[C@@H](Cc5c[nH]c6ccccc56)NC(=O)[C@H](Cc5ccc(O)cc5)NC4=O)c4ccc5ccccc5c4C3(C)C)C(C)(C)c3c2ccc2ccccc32)C(=O)N[C@@H](Cc2ccc(O)cc2)C(=O)N[C@H](Cc2c[nH]c3ccccc23)C(=O)N[C@@H](CCCCN)C(=O)N[C@@H]([C@@H](C)O)C(=O)N1)C(=O)O [Cytate 2, bisOctreotate-Bisethylcarboxymethylindocyanine dye] | – | – | – | – | – | – | – | – | – | – | – | – | – | rapidly increased to a peak value. The signal then decayed as a function of time | – | – | – | – | – | –
3 | CC1(C)C(/C=C/C=C/C=C/C=C2\N(CCCCS(=O)(=O)O)c3ccc4ccccc4c3C2(C)C)=[N+](CCCCS(=O)(=O)[O-])c2ccc3ccccc3c21 [ICG, indocyanine green] | – | – | mostly cleared | – | – | – | – | – | – | – | – | – | – | – | considerably diminished | slow perfusion of the agent over time into the tumor | considerably diminished | slow perfusion of the agent over time into the tumor | considerably diminished and almost absent | only a slight but transient perfusion that was absent after only 30 minutes post injection
